US20230265151A1, “GIP/GLP1 CO-AGONIST COMPOUNDS” (priority 2020, published 2023)
*1 amine or outer side, *2 acyl side, *3 side chain or, on linkers, in order; H or OH if unused. Where no end group is shown, it is not given here. Side-chain parts run from the residue outwards. [ ]: non-standard residue; d: D form. The star is where a group is joined. Decanoyl(10-(4-HOOC-PhO)) = O=C(O)c1ccc(OCCCCCCCCCC(=O)*)cc1; αMePhe(2-F) = C[C@](N)(Cc1ccccc1F)C(=O)O; γGlu = O=C(O)[C@H](CCC(=O)[*:2])N[*:1]; C14 diacid = O=C(O)CCCCCCCCCCCCC(=O)*; αMeY = C[C@](N)(Cc1ccc(O)cc1)C(=O)O; αMeL = CC(C)C[C@](C)(N)C(=O)O; Orn = NCCC[C@H](N)C(=O)O; AEEA = NCCOCCOCC(=O)O; Aib = CC(C)(N)C(=O)O

T1: human GIP receptor (human) (UniProt P48546)
T1 sequence (looked up): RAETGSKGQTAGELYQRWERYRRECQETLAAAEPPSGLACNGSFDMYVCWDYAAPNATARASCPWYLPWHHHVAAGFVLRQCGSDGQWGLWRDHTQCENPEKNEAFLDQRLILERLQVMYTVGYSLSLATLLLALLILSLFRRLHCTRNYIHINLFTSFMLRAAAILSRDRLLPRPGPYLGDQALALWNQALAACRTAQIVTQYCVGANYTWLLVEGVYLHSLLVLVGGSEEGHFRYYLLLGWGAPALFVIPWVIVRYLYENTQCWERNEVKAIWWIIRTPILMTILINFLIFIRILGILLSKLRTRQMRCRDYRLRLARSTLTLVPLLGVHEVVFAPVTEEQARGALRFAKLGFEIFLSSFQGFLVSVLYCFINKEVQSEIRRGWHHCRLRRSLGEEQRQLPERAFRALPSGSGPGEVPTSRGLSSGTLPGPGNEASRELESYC

T2: human GIP receptor (human, UniProt P48546 22-466)
T2 sequence (looked up): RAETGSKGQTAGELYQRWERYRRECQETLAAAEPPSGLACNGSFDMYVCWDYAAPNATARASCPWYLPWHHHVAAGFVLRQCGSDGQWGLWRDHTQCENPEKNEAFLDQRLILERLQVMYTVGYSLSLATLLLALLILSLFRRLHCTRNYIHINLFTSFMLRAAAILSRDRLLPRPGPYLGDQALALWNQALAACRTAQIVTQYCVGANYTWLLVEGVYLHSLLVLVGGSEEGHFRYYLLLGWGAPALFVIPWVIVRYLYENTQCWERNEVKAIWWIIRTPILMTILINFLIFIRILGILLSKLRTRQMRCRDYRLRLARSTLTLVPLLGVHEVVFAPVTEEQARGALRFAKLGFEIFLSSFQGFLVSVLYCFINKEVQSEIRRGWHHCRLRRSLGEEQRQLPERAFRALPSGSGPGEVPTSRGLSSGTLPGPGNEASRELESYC


Legend:
Assay in all cases: cell-based or functional assay
hGLP-1R = hGLP-1R (Homo sapiens, UniProt P43220)
[1] = target: T1, human GIP receptor (human)
[2] = target: human glucagon receptor (human) (UniProt P47871)
human GIP receptor = target: T2, human GIP receptor
human GLP-1 receptor = human GLP-1 receptor (human, UniProt P43220 24-463)
human glucagon receptor = human glucagon receptor (human, UniProt P47871 26-477)
Sequence of human glucagon receptor (P47871 26-477): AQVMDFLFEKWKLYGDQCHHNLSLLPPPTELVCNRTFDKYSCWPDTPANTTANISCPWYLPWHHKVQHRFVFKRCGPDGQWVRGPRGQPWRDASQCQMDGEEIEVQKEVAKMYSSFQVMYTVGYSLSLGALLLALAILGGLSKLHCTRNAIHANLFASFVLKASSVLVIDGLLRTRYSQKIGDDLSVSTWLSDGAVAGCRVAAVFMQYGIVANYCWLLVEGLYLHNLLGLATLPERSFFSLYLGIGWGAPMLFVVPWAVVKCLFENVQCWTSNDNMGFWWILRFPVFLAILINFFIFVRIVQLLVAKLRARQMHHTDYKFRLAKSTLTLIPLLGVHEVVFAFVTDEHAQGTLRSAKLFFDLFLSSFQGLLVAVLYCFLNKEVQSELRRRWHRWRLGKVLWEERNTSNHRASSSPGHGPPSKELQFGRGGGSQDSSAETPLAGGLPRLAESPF

Row | Binder | cAMP EC50 (hGLP-1R) | cAMP Emax (hGLP-1R) | cAMP EC50 [1] | cAMP Emax [1] | cAMP EC50 [2] | cAMP EC50 (1.0% HSA) (human GIP receptor) | cAMP Emax (1.0% HSA) (human GIP receptor) | cAMP EC50 (1.0% HSA) (human GLP-1 receptor) | cAMP Emax (1.0% HSA) (human GLP-1 receptor) | cAMP EC50 (1.0% HSA) (human glucagon receptor)
1 | Y[Aib]EGT[αMePhe(2-F)]TSDV[Aib]I[αMeL]LD[Orn]IAQ[Aib]K([AEEA-AEEA-γGlu-Decanoyl(10-(4-HOOC-PhO))])FI[dE][αMeY]LIEGGPSSGAPPPSK([AEEA-AEEA-γGlu-Decanoyl(10-(4-HOOC-PhO))])-NH2 [Example 383] | 0.306 nM | 105% | 0.0147 nM | 100% | > 9950 nM | 10.7 nM | 82.8% | 92.2 nM | 102% | > 9950 nM
2 | Y[Aib]EGT[αMePhe(2-F)]TSDV[Aib]I[αMeL]LD[Orn]IAQ[Aib]K([AEEA-γGlu-Decanoyl(10-(4-HOOC-PhO))])FI[dE][αMeY]LIK([AEEA-γGlu-Decanoyl(10-(4-HOOC-PhO))])GGPSSGAPPPS-NH2 [Example 382] | 0.619 nM | 101% | 0.0302 nM | 97.6% | > 9950 nM | 18.7 nM | 87.2% | 204 nM | – | > 9950 nM
3 | Y[Aib]EGT[αMePhe(2-F)]TSDV[Aib]I[αMeL]LD[Orn]K([AEEA-γGlu-Decanoyl(10-(4-HOOC-PhO))])AQ[Aib]EFI[dE][αMeY]LIK([AEEA-γGlu-Decanoyl(10-(4-HOOC-PhO))])GGPSSGAPPPS-NH2 [Example 379] | 0.171 nM | 104% | 0.0167 nM | 97.5% | > 9950 nM | 11.6 nM | 90% | 48.5 nM | – | > 9950 nM
4 | Y[Aib]EGT[αMePhe(2-F)]TSDV[Aib]I[αMeL]LD[Orn]K([AEEA-AEEA-C14 diacid])AQ[Aib]EFI[dE][αMeY]LIK([AEEA-AEEA-C14 diacid])GGPSSGAPPPS-NH2 [Example 389] | 0.19 nM | 92.4% | 0.0178 nM | 94.6% | > 9950 nM | 1.5 nM | 82% | 9.58 nM | – | > 9950 nM
5 | YXEGTXTSDYXIXLDXKAQXEFIXXLIEGGPSSGAPPPSK (Y-Aib-EGT-αMeF(2F)-TSDY-Aib-I-αMeL-LD-Orn-K((2-[2-(2-Amino-ethoxy)-ethoxy]-acetyl)-(γ-Glu)-(10-(4-carboxyphenoxy)decanoyl))AQ-Aib-EFI-(D-Glu)-αMeY-LIEGGPSSGAPPPSK((2-[2-(2-Amino-ethoxy)-ethoxy]-acetyl)-(γ-Glu)-(10-(4-carboxyphenoxy)decanoyl))-NH2) [Example 374] | 0.269 nM | 106% | 0.0135 nM | 96.2% | > 9950 nM | 1.96 nM | 88.8% | 39.7 nM | – | > 9950 nM
6 | YXEGTXTSDYXIXLDXIAQXKFIXXLIEGGPSSGAPPPSK (Y-Aib-EGT-αMeF(2F)-TSDY-Aib-I-αMeL-LD-Orn-IAQ-Aib-K((2-[2-(2-Amino-ethoxy)-ethoxy]-acetyl)-(γ-Glu)-(10-(4-carboxyphenoxy)decanoyl))FI-(D-Glu)-αMeY-LIEGGPSSGAPPPSK((2-[2-(2-Amino-ethoxy)-ethoxy]-acetyl)-(γ-Glu)-(10-(4-carboxyphenoxy)decanoyl))-NH2) [Example 377] | 0.356 nM | 100% | 0.0205 nM | 92.8% | > 9950 nM | 17.5 nM | 79.4% | 178 nM | 110% | > 9950 nM
7 | YXEGTXTSDYXIXLDXKAQXEFIXXLIKGGPSSGAPPPS (Y-Aib-EGT-αMeF(2F)-TSDY-Aib-I-αMeL-LD-Orn-K((2-[2-(2-Amino-ethoxy)-ethoxy]-acetyl)-(γ-Glu)-(10-(4-carboxyphenoxy)decanoyl))AQ-Aib-EFI-(D-Glu)-αMeY-LIK((2-[2-(2-Amino-ethoxy)-ethoxy]-acetyl)-(γ-Glu)-(10-(4-carboxyphenoxy)decanoyl))GGPSSGAPPPS-NH2) [Example 373] | 0.329 nM | 101% | 0.0152 nM | 101% | > 9950 nM | 2.84 nM | – | 37.4 nM | – | > 9950 nM
8 | YXEGTXTSDYXIXLDXKAQXKFIXXLIEGGPSSGAPPPS (Y-Aib-EGT-αMeF(2F)-TSDY-Aib-I-αMeL-LD-Orn-K((2-[2-(2-Amino-ethoxy)-ethoxy]-acetyl)2-(10-(4-carboxyphenoxy)decanoyl))AQ-Aib-K((2-[2-(2-Amino-ethoxy)-ethoxy]-acetyl)2-(10-(4-carboxyphenoxy)decanoyl))FI-(D-Glu)-αMeY-LIEGGPSSGAPPPS-NH2) [Example 393] | 0.372 nM | 96.8% | 0.0115 nM | 94.3% | > 9950 nM | 0.547 nM | 66.7% | 9.18 nM | – | > 9950 nM
9 | YXEGTXTSDYXIXLDXIAQXKFIXXLIKGGPSSGAPPPS (Y-Aib-EGT-αMeF(2F)-TSDY-Aib-I-αMeL-LD-Orn-IAQ-Aib-K((2-[2-(2-Amino-ethoxy)-ethoxy]-acetyl)-(γ-Glu)-(10-(4-carboxyphenoxy)decanoyl))FI-(D-Glu)-αMeY-LIK((2-[2-(2-Amino-ethoxy)-ethoxy]-acetyl)-(γ-Glu)-(10-(4-carboxyphenoxy)decanoyl))GGPSSGAPPPS-NH2) [Example 376] | 0.539 nM | 104% | 0.0281 nM | 99.8% | > 9950 nM | 39.6 nM | 88.3% | 419 nM | 121% | > 9950 nM
